Experimental data: paper doi:10.1101/2024.03.29.587195 (bioRxiv, 2024)
“And” between values parts separate entries of the source, which are not always exact repeats. Identical values can stand only once.

Target: the molecule itself
Assay: cryo-EM structure

B1: CoaXMtb, untagged, recombinant (cryo-EM sample) (natural protein)
chain: MLLAIDVRNTHTVVGLLSGMKEHAKVVQQWRIRTESEVTADELALTIDGLIGEDSERLTGTAALSTVPSVLHEVRIMLDQYWPSVPHVLIEPGVRTGIPLLVDNPKEVGADRIVNCLAAYDRFRKAAIVVDFGSSICVDVVSAKGEFLGGAIAPGVQVSSDAAAARSAALRRVELARPRSVVGKNTVECMQAGAVFGFAGLVDGLVGRIREDVSGFSVDHDVAIVATGHTAPLLLPELHTVDHYDQHLTLQGLRLVFERNLEVQRGRLKTAR
  stoichiometry N: 6 and 4
